Experimental data: the nanobody polyreactivity screen of Harvey et al. (2022)

Experiment: yeast display, Sf9 membrane polyspecificity reagent, FACS + sequencing; frameworks hold sequencing errors
Procedure, shortened: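 Synthetic nanobody libraries on Saccharomyces cerevisiae BJ5465 were galactose-induced for 36–48 hours, stained 1 hour at 4 °C with 10% biotinylated, detergent-solubilized Sf9 membrane reagent and enriched on streptavidin microbeads. FACS then separated cells into low and high (top ~1%) gates by anti-HA (expression) and streptavidin (reagent binding) fluorescence. Genes were colony-PCR amplified, MiSeq 2 × 250 sequenced and CDR-length filtered. A clone's polyreactivity label is that of its gate of origin.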

| Sequence | polyreactivity (PSR sort gate) |
| --- | --- |
| QVQLVESGGGLVQAGGSLRLSCAASGNTFVYYAMGWYRQAPGKERELVAAISSSGGRTYYADSVKGRFTISRDNAKNTVYLQMNSLKPEDTAVYYCAARGPYTTKAYDYWGQGTQVTVSS | high polyreactivity |
| QVQLVESGGGLVQAGGSLRLSCAASGNTFWKYAMGWYRQAPGKERELVAAITRGGARTYYADSVKGRFTISRDNAKYSVYLQINSLNPEDTAVYYCAAQYWTEYGSWGQGTEVTVSS | low polyreactivity |
| QVQLVESGGGLVQAGGSLRLSCAASGNTFWSYTMGWYRQAPGKERELVAAITRSGGSTYYADSVKGRFTISRDHAKNTVYLQMNSLKPEDTAVYYCAADYYSASRFGYWGQGTQVTVSS | high polyreactivity |
| QVQLVESGGGLVQAGGSLRLSCAASGNTFYGYAMGWYRQAPGKERELVASITLSGDSMYYADSVKGRFTISRDNAKNTVYLQMNSLIPDDTAVYYCNADWYFQYPYDYWGQGTQVSVSS | low polyreactivity |
| QVQLVESGGGLVQAGGSLRLSCAASGNTFYGYAMGWYRQAPGKERELVASITLSGDSTYYADSVKGRFTISRDNAKNTVYLQMNSLKPEDTAVYDCAGVYTYPLGYYHYTYDYWGQGTQVTVSS | low polyreactivity |
| QVQLVESGGGLVQAGGSLRLSCAASGNTFYGYAMGWYSQAPGQERELVASITLSGDSTYYADSVKGRFTISRDNAKNTVYLQMNTLKPEDTAVYYCAGVYTYPLGYYHYTYDYWGQGTQVTVSS | low polyreactivity |
| QVQLVESGGGLVQAGGSLRLSCAASGNTFYGYTMGWYIQAPGKDRELVAAISGRGGSTTYADSVKGRFTISRDNAKNTVYLQMNSLNPEDTAVYYCAATYVYIRTRFYYWGQGTQVTVSS | high polyreactivity |
| QVQLVESGGGLVQAGGSLRLSCAASGNTFYKYAMGWYRQAPGKERELVADISWSGGSTYYADSVKGRFTISRDNAKNTVYLQMNSLKREDTAVYYCNADTPVWDGHAYPVDYWGQGTQVTVSS | low polyreactivity |
| QVQLVESGGGLVQAGGSLRLSCAASGNTFYPHAMGWYRQAPGTERELVAAISSTGGRTYYADSVKGRFTISRDNAKNTVYLQMNSLKPEDTAVYFCNTYACVAGDYWGQGTQVTVSS | high polyreactivity |
| QVQLVESGGGLVQAGGSLRLSCAASGNTFYPYAMGWYRQAPGKERELVAAISFSSGSTYYADSVKGRFTISRDNAKNTVYLQMNSLKPEETAVYYCAAEANGNFAWWEYYYWGQGTQVTVSS | high polyreactivity |
| QVQLVESGGGLVQAGGSLRLSCAASGNTFYPYAMGWYRQAPGKERELVAAITSSGGSTYYADSVKGRFTISRDNAKNTVYLQMNSLKPEDTAVYYCAADPDWYSPFKYCYWGQGTQVTVSS | low polyreactivity |
| QVQLVESGGGLVQAGGSLRLSCAASGNTFYRNAMGWYRQAPGKERELVAGISNGGSTNYADSVKGRFTISRDNAKNTVYLQMNSLKPEDTAVYYCAKDEPKVSRAFDYWGQGTQVTVSS | low polyreactivity |
| QVQLVESGGGLVQAGGSLRLSCAASGNTFYRYAMGWYRQAPGKERELVAAITWSGSRTYYADSVKGRFTISRDNAKNTVYLQMNSLKPEDTAVYYCAAPFWYVGPAMDYWGQGTQVTVSS | low polyreactivity |
| QVQLVESGGGLVQAGGSLRLSCAASGNTFYSYAMGWYRQAPGKERELVAAITWGGRTKYADSVKGRFTISRDNAKNTVYLQMNSLKPEDTAVYYCAARLYHGKTKYDYWGQGTQVTVSS | high polyreactivity |
| QVQLVESGGGLVQAGGSLRLSCAASGNTFYTNVMGWYRQAPGKERELVAAITQSGARTYYADSVKGRFTISRDNAKNTVYLQMNSLKPEDTAVYYCASEHYFYRDYPYEFWGQGTQVTVSS | high polyreactivity |
| QVQLVESGGGLVQAGGSLRLSCAASGNTIGVNAMGWYRQAPGKERELVAVITSGGGSTYYADSVKGRFTISRDNAKNTVYLQMNSLKPEDTAVYYCARRSYRLYTLGNGYWGQGTQVTVSS | low polyreactivity |
| QVQLVESGGGLVQAGGSLRLSCAASGNTIIRYAIAWYRQAPGKERELVAAISYSGGRTYYADSVKGRFTISRDNANNTVYLQMNSLKPEDTAVYYCNAASRYGGDYWGQGTQVTVSS | high polyreactivity |
| QVQLVESGGGLVQAGGSLRLSCAASGNTIIRYPMGWYRPAPGKERELVAAISYSGGRTYYADSVKGRFTISRDSAKNTVYLQMNRLKPEDSAVLYCNAASRYGGDYWGQGSQVTVSS | high polyreactivity |
| QVQLVESGGGLVQAGGSLRLSCAASGNTIKGYAMGLYRQAPGKERELVAAISWSGSSTYYADSVKGRFTISRDNAKYSVYLHKNSVKPEDTAVYYCNRKYLGRYASVYGYGYWGQGTQVTVSS | high polyreactivity |
| QVQLVESGGGLVQAGGSLRLSCAASGNTIRSYAMGWYRPAPGKERELVAAISGRGGSTYYADSVKGRFTISRDNAKNTVYLEMNSLKPEDTAVNYCAAESRRVNYANDYWGQGTEVTVSS | high polyreactivity |
| QVQLVESGGGLVQAGGSLRLSCAASGNTLAYYVMGWYRQAPGKERELVAAITSGGTTNYADSVKGRFTISRDNAKNTVYLQMNSLNPEDTAVYYCAGCPSKRPPWLRQGGYDYWGQGTQVTVSS | low polyreactivity |
| QVQLVESGGGLVQAGGSLRLSCAASGNTLDAYAMGWYRQAPGKERELVAAITSGGSTYYADSVKGRFTISRDNAKNTVYLQMNILKPEDTAVYYCNADGHPSDPGYDYWGQGTQVTVSS | low polyreactivity |

| Sequence | polyreactivity (PSR sort gate) |
| --- | --- |
| QVQLVESGGGLVQAGGSLRLSCAASGNTSVPYAMGWYRQAPGKERELVARITWSTGRTYYADSVKGRFTISRDNAKNTVYLQMNSLKPEDTAVYYCATEALLPCSGGDYWGQGTQVTVSS | low polyreactivity |
| QVQLVESGGGLVQAGGSLRLSCAASGNTYGRYAMGWYRQAPGKERELVAAISSSGTSTYYADSVKGRFTISRDNAKNTVYLQMNSLKPVDTAVYNCGAVYWTFWGTIASRYDYWGQGTQVTVAS | high polyreactivity |
| QVQLVESGGGLVQAGGSLRLSCAASGNTYLNAMGWYRQAPGKERELVAAISKGGADTYYADSVKGRFTISRDNAKNTVYLQMNSLKPEDTAVYYCAADGYADGWWVEYPWTYDYWGQGTQVTVSS | low polyreactivity |
| QVQLVESGGGLVQAGGSLRLSCAASGPIFTSNAMGWYRQAPGKERELVAAISRRGTRTYYADSVKGRFTISRDNAKNTVYLQMNSLKPEDTAVYYCAATTGEQEYYWGQGTQVTVSS | high polyreactivity |
| QVQLVESGGGLVQAGGSLRLSCAASGPMFTSNAMGWYRQAPGKERELVAAISRRGTRTYYADSVKGRFTISRDIAKHSVYLQMNSLKPEDTAVYYCAATTGEQEDYWGQGTQVTVSS | high polyreactivity |
| QVQLVESGGGLVQAGGSLRLSCAASGPTFFYYAMGWYRQAPGKERELVAAIRRSGGRTRYADSVKGRFTISRDNAKNTVYLQMNSLKPEDTAVYYCAADDGTHRRGYDYWGQGTQVTVSS | low polyreactivity |
| QVQLVESGGGLVQAGGSLRLSCAASGPTFPFNAMGWYRQAPGKERELVAAISWRDGRTYYADSVKGRFTISRDNAKNTVYLQMNSLKPEDTAVYYCNVVKRRSDWGMDYWGQGTQVTVSS | high polyreactivity |
| QVQLVESGGGLVQAGGSLRLSCAASGPTFWRNAMGWYRQAPGKEREFVASISRSGGSTYYADSVKGRFTISRDNAKNTVYLQMNSLKPEDTAVYYCAALGVRGYRGPGGQDYNSWGQGTQVTVSS | high polyreactivity |
| QVQLVESGGGLVQAGGSLRLSCAASGPTYKYNAMGWYRQAPGKEREMVAAISSTGSTNYADSVKGRFTISRDNAKNTVYLQMNSLKPEDTAVYYCAASFYFVQWGWYYYWGQGTQVTVSS | low polyreactivity |
| QVQLVESGGGLVQAGGSLRLSCAASGPTYWPYAMGWYRQAPGKERELVAAITYSGGGTYYADSVKGRFTISRDNAKNTVYLQMNSLKPEDTAVYYCAKYNYPGRPFDYWGQGTQVTVSS | low polyreactivity |
| QVQLVESGGGLVQAGGSLRLSCAASGQTFGGYAMGWYRQAPGKERELVAAITKRGGNTDYADSVKGRFTISRDKAKNTVYLQMTSLKPEDTAVYYCAASRAVGFGYWGQGTQVTVSS | high polyreactivity |
| QVQLVESGGGLVQAGGSLRLSCAASGQTFRRYDMGWYRQAPGKEREFVAAITWSTGSTYYADSVKGRFTISRDYAKNTVYLQMNSLKPEDTAGYYCAARSGYFYRYYKYDYWGQGTQVTVSS | high polyreactivity |
| QVQLVESGGGLVQAGGSLRLSCAASGRFFSNNAMGWYRPAPGKERELVAAIDSSGDSTNYADSVKGRFTISRDIAKNTVYLQMNSLKPEDTAVYYCNALQRGRRVWQYLYGYWGQGTQVNVSS | high polyreactivity |
| QVQLVESGGGLVQAGGSLRLSCAASGRICDFYSMGWYRQAPGKERELVAAIDSDGSTNYADSVKGRFTISRDNAKNNVYLQMNSLKPEDTAVSYCNADIWAYTYRRYDYWGQGTQVTVSS | low polyreactivity |
| QVQLVESGGGLVQAGGSLRLSCAASGRICGSYAMGWYRQAPGKERELVADISWRGTSTYYADSVKGRFTISRDIAKNTVYLQMNSLKPEDTAVYYCAARGLWPYDYWGQGTQVTVSS | low polyreactivity |
| QVQLVESGGGLVQAGGSLRLSCAASGRICKRNAMGWYRQAPGKERELVAAITWSGGSTYYADSVKGRFTISRDNAKNTVYLQMNSLKPEDTAVYYCAALRVQGDYDYWGQGTQVTVSS | high polyreactivity |
| QVQLVESGGGLVQAGGSLRLSCAASGRICPGYVMGRYRQAPGKERELVAAITSTGRTYYADSVKGRFTISRDNEKKTVYLQMNSLKPEDTAVYYCAAVRSYYRGYDYWGQGTQVTVSS | high polyreactivity |
| QVQLVESGGGLVQAGGSLRLSCAASGRIDVSNAMGWYRQAPGKERELVAAITRTGASTYYADSVKGRCTISRDNAKNNVYVQMNSLKPEDSAVYYSDDVWGWPYWVYRYDYWGQGTQVTVSS | high polyreactivity |
| QVQLVESGGGLVQAGGSLRLSCAASGRIFADNAMGWYRQAPGKERELVADITYSGGSTYYADSVKGRFTISRDNAKNTVYLQMNSLNPEDTAVYYCAKQGVDYWGQGTQVTVSS | low polyreactivity |
| QVQLVESGGGLVQAGGSLRLSCAASGRIFADYGMGWYRQAPGKERELVAAITDRGGTTYYADSVKGRFTISRDNAKNTVYLQMNSLKPEDTAVYYCAADTPDAPDYSGFYYWGQGTQVTVSS | low polyreactivity |
| QVQLVESGGGLVQAGGSLRLSCAASGRIFAENAMGWYRQAPGKERELVAAISRTGSRTYYADSVKGRFTISRDNAKNTVYLQMNSLKPEDSAVYYCNKVSAQDEFRSRGYWGQGTQVTVSS | high polyreactivity |
